Laboratory results from the DeepSol protein solubility set.

Assay: soluble on expression in E. coli; label from the status in PepcDB or PDB records

| Sequence | soluble on expression in E. coli |
| --- | --- |
| MAELNFKAIEEKWQKRWLEAKIFEPNIRDKPKEKKFYITVAFPYLSGHLHVGHARTYTIPDVIARFKRMQGYNVLFPMAWHITGSPIVGIAERIKNRDPKTIWIYRDVYKVPEEILWTFEDPINIVKYFMKAAKETFIRAGFSVDWSREFYTTSLFPPFSKFIEWQFWKLKEKGYIVKGAHRVRWDPVVGTPLGDHDLMEGEDVPILDYIIIKFELRENGEVIYLPAATLRPETVYGVTNMWVNPNATYVKAKVRRKDKEETWIVSKEAAYKLSFQDREIEVIEEFKGEKLIGKYVRNPVSGDEVIILPAEFVDPDNATGVVMSVPAHAPFDHVALEDLKRETEILEKYDIDPRIVENITYISLIKLEGYGDFPAVEEVNKLGIKSQKDKEKLEQATKTIYKAEYHKGIFKVPPYEGKPVQEVKEAIAKEMLEKGIAEIMYEFAEKNVISRFGNRAVIKIIHDQWFIDYGNPEWKEKARKALERMKILPETRRAQFEAIIDWLDKKACARKIGLGTPLPWDPEWVIESLSDSTIYMAYYTISRHINKLRQEGKLDPEKLTPEFFDYIFLEEFSEDKEKELEKKTGIPAEIIHEMKEEFEYWYPLDWRCSGKDLIPNHLTFFIFNHVAIFREEHWPKGIAVNGFGTLEGQKMSKSKGNVLNFIDAIEENGADVVRLYIMSLAEHDSDFDWRRKEVGKLRKQIERFYELISQFAEYEVKGNVELKDIDRWMLHRLNKAIKETTNALEEFRTRTAVQWAFYSIMNDLRWYLRRTEGRDDEAKRYVLRTLADVWVRLMAPFTPHICEELWEKLGGEGFVSLAKWPEPVEEWWNETIEAEEEFIRSVMEDIKEIIEVAKIENAKRAYIYTAEDWKWKVAEVVSEKRDFKSSMEELMKDSEIRKHGKEVAKIVQKLIKERTFDVKRINEEKALREAKEFMEKELGIEIIINPTEDKGGKKKQAMPLKPAIFIE | soluble |
| MKSKLICIIMVIAFQAHFTMTVKADSVGEEKLQNNTQAKKTPADLKALPDSCEAKDFYKNFKILDMTKDKLGVTHYTLALSSGGYLTDNDEIKVHVTPDNKITFINGDLQQGQLRITNQIKITEKNAIEKAFEAIGQSEAHVKSYVGNPVKEKEIILNSRTKRLVYNIKLIFAEPEVASWIVQVDVETGAILKKQNMLSEVERADTHKDFQALGKGANRLLQRPLHVMKINDLFYLVDRTHKGLIRTFDLKHNTDTSFGKVVSNKTNMFTDPEFSSAVDAHFYASEVYEYYKNVHQLESLDGKGGEIDSFVHYGLNCNNAFWDGQEILYGDGDKKNFKPFSCAKTIVGHELTHAVIQYSAGLEYEGQSGALNESFADVFGYFIAPNHWLIGEDVCVRGSRDGRIRSIKDPDKYNQAAHMKDYESLPLTEEGDWGGVHYNSGIPNKAAYNTITKLGKEKTEQLYFRALKYYLTKKSQFTDAKKALQQAAKDLYGEDASKKVAEAWEAVGVN | not soluble |
| AVLDLDVRTCLPCGPGGKGRCFGPSICCGDELGCFVGTAEALRCQEENYLPSPCQSGQKPCGSGGRCAAAGICCSPDGCEEDPACDPEAAFS | soluble |
| MGSDKIHHHHHHMMSDEKNLGVSQKLVSPSRSTSSCSSKQGSRQDSWEVVEGLRGEMNYTQEPPVQKGFLLKKRKWPLKGWHKRFFYLDKGILKYAKSQTDIEREKLHGCIDVGLSVMSVKKSSKCIDLDTEEHIYHLKVKSEEVFDEWVSKLRHHRMYRQNEIAMFPHEVNHFFSGSTITDSSSGVFDSISSRKRSSISKQNLFQTGSNVSFSCGGETRVPLWLQSSEDMEKCSKDLAHCHAYLVEMSQLLQSMDVLHRTYSAPAINAIQGGSFESPKKEKRSHRRWRSRAIGKDAKGTLQVPKPFSGPVRLHSSNPNLSTLDFGEEKNYSDGSETSSEFSKMQEDLCHIAHKVYFTLRSAFNIMSAEREKLKQLMEQDASSSPSAQVIGLKNALSSALAQNTDLKERLRRIHAESLLLDSPAVAKSGDNLAEENSRDENRALVHQLSNESRLSITDSLSEFFDAQEVLLSPSSSENEISDDDSYVSDISDNLSLDNLSNDLDNERQTLGPVLDSGREAKSRRRTCLPAPCPSSSNISLWNILRNNIGKDLSKVAMPVELNEPLNTLQRLCEELEYSELLDKAAQIPSPLERMVYVAAFAISAYASSYYRAGSKPFNPVLGETYECIREDKGFQFFSEQVSHHPPISACHAESRNFVFWQDVRWKNKFWGKSMEIVPIGTTHVTLPVFGDHFEWNKVTSCIHNILSGQRWIEHYGEIVIKNLHDDSCYCKVNFIKAKYWSTNAHEIEGTVFDRSGKAVHRLFGKWHESIYCGGGSSSACVWRANPMPKGYEQYYSFTQFALELNEMDPSSKSLLPPTDTRFRPDQRFLEEGNLEEAEIQKQRIEQLQRERRRVLEENHVEHQPRFFRKSDDDSWVSNGTYLELRKDLGFSKLDHPVLW | not soluble |
| MGSDKIHHHHHHMAADVATPFQQLRINKFAAIQNGQFVASFKVPRSAGFTLIIPNADDFLTNNISIMTPDNKVLDASNFAAFGVEFSQFSPDNELTAFLATGNSWIIKFSDVIPGSYTVRGVTSSAKSHLPIRVLVKNSDIALHLVIGSPSNIPMVNHHLPISVLMVDGDLPYINGNVSFEIFKDGEALQHANIRDDGVYPDYQANDGTYSTLFMPLSAGVYDVLINISGRNKNGDKFEAQIFRSFKVLQDNVYLTGKHSEVLIDEDGDGYNDALMLEFETGGVFQEEGVYYITVNLETNDGRTLVAHQRIESPEKKFYVKFDGKYLGTLDYSGAFKFFSIVIEYNDSIIHLNQSFGSTSYYDHDSWERDDLLYLGNVTFEPIYSADGRFIEMIDVSFEVDTLPTAARFGYSATITTVGNEHVGVYGNPDIELKKGINRITFSIPAADFAKLQSNTALKISQLTMYPLIKGGNVISKRNVATSELYSCWDFRGCSTAENAIPVAVDDEVTSTGKAMYIHVAQNDYDGDLLKVSDQKKDNFGTLTQWSIQFD | not soluble |
| MGSDKIHHHHHHMKVAKFGGSSLASASQIKKVFDIVQADKQRKFIVVSAPGKRSGADTKVTDALIAYYKAYKSADEKGIHYYQNWIIERFREIYDELGLKSPVINQIAENINHLAQLDLDNVFTYDTFLAAGENNNAKLVADFFNHSGLPSRYVHPSDAGIMVSSDPGNARLLGGAYEHIKYLNELEETLIIPGFFGITKEGEVCTFSRGGSDITGSIIAAGVRAELYENFTDVNGIFAAHPGIVKNPAYISELTYREMRELAYSGFSVLHDEALVPAYRAHVPLVIKNTNNPDHPGTKIVVQRETKGSPVVGIASSSAFSSLYVSKYLMNREVGFGRKVLSVLENLGVRFEHMPTGIDDMSIIIRSRYLTQPISKALISNLTESLHPDEVYIDRDFSIITIVGEDMKEHVGVTARATAALSKQGISIAMLSQGSSEVSVMFIVKEKYEKEALKAIYSAFFD | not soluble |
| MKYNTMNNDEIILSLCARLKETRLSLSMTQQQLADRAHVGIATIKRIEKGGGLNLDTLISLLRALDKLHNLDAVLFESELRNFHESYEGGEGSGRLQVRQQAADLNNKSSAPQSEEVNYSAALENSLCW | not soluble |
| MGLSATIMEAEPEGRKRPGSRAIYFHKATLIHLESIFPGLGYTLAKNGLVWPIKRTFFRGKEVFVKDYGPTDPNQLPPFTSLPQDRAEQFMFDACLQAGVEFVWKTPIRQVETSPAGATLTTKAGDVWSADYVIGADGARSSVRTTAGMKLEGPRTNDTFLVVDVKEDEESPLPLERVFHYEHPAMGGRNVMFVPFVGGWRVDLQLLEHDDPEEYSHPEGVRRWIQKVMPAKYGERVTWVSTYRFHQVVADSFTDQHGKVLLAGEAAHLFAPFGARGLNSGTPDAIKAAQGIHTALSARDDQAAKQAIFAAAHERRIAALWNRDCSSTALEHLQGLEHHHHHH | not soluble |
| MGSDKIHHHHHHMKIGIIGAGRVGCSIGKYLRTKDIELAGYYDVDSAAAKEAAEFTRTESFDSLKQLADQSQIIFITTPDSFIIPVWEQLKELSLTNQIICHCSGALSSDSFSGRESMSVSCCSIHPMLPFSNKFSSYEQLNKAFFTVEGQDAAVEAISGLFCSIGNEVCRIDGAKKAKYHAAASILSNQVIAVLDMGYSLLEDCGFTRAEAVRATGQLVMRNIENVLEAGCDGALTGPIERNDIETVKKHIACMQNDDSDDVRLYKMLGTKLVNIAEKKNPDKDYTQMMELLRG | not soluble |
| KTKLNITMEEDTEVLDEVVVVGYGAQKKESVVGAISQVSSKELLKSPAANISQAIAGKISGVITSQTSGAPGADDMKIYIRGRASFAGDNQPLILVDGVEREFSQIAPDDIESISTLKDASATAVYGVRGANGVMLITTKRGKEQK | not soluble |
| MSLGMHLPGGIVENVRKRPGMYCGDVGEYGLHHLVYFLLDVAYEEARRGECRDVVLEVGGDGSIALFCTSRTVTAENLVRVATGAGFLGRPPGDGWGWDSMLVVSLALSSRYQVDIWADGRQWRVMGEHGHPQGEGAAVTPMEPMPVSAERGVRVHFVPDATIFEVLAFDRARLSRRCNELAALAPGLRVSFADLQRGERTLWHLPGGVAQWAHVLTEARPQLHPEPVVFDFTWDGLRVQCALQWCEDEDSTLLSFANAVRTVRHGAHVKGVTQALRGALAKLSGETRGAFPWARVAQGLTAIVAVSGPRRQMAFAGPTKELLAIPGLEEAIRKQLQPLFIELLREHPVTPALLARRTSGSEGHHHHHH | soluble |
| MQDWWEADNRLADWLSMILIQRTIEKNAKQALANLGPHLDLESLIGMDMATLEEYIYPAGFYKQKSIYIKALIKWFHGHGASLDKFQTYSTEDLRKELLGIKGVGEETADAMLLYIFERNVFIADLEHHHHHH | not soluble |
| MGSDKIHHHHHHMLELKHNFIFEDQPVAWGCMGQGPALVLIHGTPFSSQVWRRIAPLLSSHWTVYYYDMVGYGQSHKSAGQQVSLGGQDRLLAALLKEWKLTRPDILCHDFGGATALRGYFLQGLRYASLTLFDAVAISPWGSPFVAHVRKHQDAFTGLPKYAHDALLSAYLQGAAYQPLSEEALNIYMSPWQGEVGQAAFYRQIAQMDQCYTDDIEPLLTELDCPVNMLWGEQDEWIPLEVGKRLAHRLGDAPLQIVKNAGHLVQEDAPEAIVQSMYSLLLKRAGTSSSR | not soluble |
| MGSDKIHHHHHHMDMTFKLQVFEGPLDLLLYLIEKNKVNIYDIPIVEITAQYMEYVNQMKKDNLDTLSEFLVMAATLLDIKSKMLLPKKEEEEQEQEDPRAELVQQLLEYKMYKCMANELKDRQLDAGKVWYKKKDIPDEVLAYEEPVNLEELVGDIRLSDLNRIFQSIMKRQEEKIDKVRSKFGKIEKEEVSLEEKMEYLTDYAASHKHFSFRGMLTASSSKVEVIVTFLAILELMKTGKLTIVQEHIFDDIRIESRIAA | not soluble |
| MPPRRYNPDTRRDELLERINLDIPGAVAQALREDLGGTVDANNDITAKLLPENSRSHATVITRENGVFCGKRWVEEVFIQLAGDDVTIIWHVDDGDVINANQSLFELEGPSRVLLTGERTALNFVQTLSGVASKVRHYVELLEGTNTQLLDTRKTLPGLRSALKYAVLCGGGANHRLGLSDAFLIKENHIIASGSVRQAVEKASWLHPDAPVEVEVENLEELDEALKAGADIIMLDNFETEQMREAVKRTNGKALLEVSGNVTDKTLREFAETGVDFISVGALTKHVQALDLSMRFR | soluble |
| MLSYRHSFHAGNHADVLKHTVQSLIIESLKEKDKPFLYLDTHAGAGRYQLGSEHAERTGEYLEGIARIWQQDDLPAELEAYINVVKHFNRSGQLRYYPGSPLIARQLLREQDSLQLTELHPSDYPLLRSGFQKDSRARVEKADGFQQLKAKLPPVSRRGLILIDPPYEMKTDYQAVVSGIAEGYKRFATGTYALWYPVVLRQQIKRMIHDLEATGIRKILQIELAVLPDSDRRGMTASGMIVINPPWKLEQQMNNVLSWLHSKLVPAGTGHATVSWIVPE | not soluble |
| KLVIAIVQDKDANYLSDQFIDQNVRATKLSTTGGFLQSGNTTFMIGIEEERVPEVLEIIKKASHTREEFMTPSVNMDVNMEGTTAYPIKVQVGGATVLVLPVDQFERF | not soluble |
| IYQMAGLNEDADRNLWLAAFRDPYGKNNLDIASLKKSIAQWAKTQGKTIAPEKVDAVLKDRTGSAVCLTCGKNGKMKMPLKSLAWIQGSSSYSQAEVIEQTEETNSAEISETRTPEVPDVHTPEAQPHLNTQSDGTPTAYTEPAADSSPQVETPDQAASEPVDVLFSIDVIRQGNLRLGN | not soluble |
